# According to patent US20090208416A1:
# How the values were obtained:
# [1] = target: NKG2A on rhesus monkey (Macaca mulatta) NK cells (rhesus monkey (Macaca mulatta)) (UniProt Q9MZJ3); assay: FACS rhesus whole blood NK cells, animal MM031
# [2] = target: NKG2A on rhesus monkey (Macaca mulatta) NK cells (rhesus monkey (Macaca mulatta)) (UniProt Q9MZJ3); assay: FACS rhesus whole blood NK cells, animal *8703
# [3] = target: NKG2A on cynomolgus monkey NK cells (cynomolgus monkey) (UniProt Q68VD2); assay: FACS cynomolgus whole blood, animal AK729
# Sequence of UniProt Q68VD2 (Q68VD2 entry or part of it): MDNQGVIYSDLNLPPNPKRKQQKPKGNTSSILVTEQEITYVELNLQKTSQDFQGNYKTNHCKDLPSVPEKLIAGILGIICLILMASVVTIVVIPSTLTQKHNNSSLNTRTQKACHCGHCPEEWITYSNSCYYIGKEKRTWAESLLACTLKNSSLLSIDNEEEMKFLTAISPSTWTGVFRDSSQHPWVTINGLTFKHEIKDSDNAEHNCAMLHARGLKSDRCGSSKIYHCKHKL
# [4] = target: NKG2A on cynomolgus monkey NK cells (cynomolgus monkey) (UniProt Q68VD2); assay: FACS cynomolgus whole blood, animal M859
# [5] = target: NKG2A on rhesus monkey (Macaca mulatta) NK cells (rhesus monkey (Macaca mulatta)) (UniProt Q9MZJ3); assay: FACS rhesus whole blood, animal 34459
# [6] = target: NKG2A on rhesus monkey (Macaca mulatta) NK cells (rhesus monkey (Macaca mulatta)) (UniProt Q9MZJ3); assay: FACS rhesus whole blood NK cells, animal 201
# [7] = target: NKG2A on rhesus monkey (Macaca mulatta) NK cells (rhesus monkey (Macaca mulatta)) (UniProt Q9MZJ3); assay: FACS rhesus whole blood, animal O967
# [8] = target: NKG2A on rhesus monkey (Macaca mulatta) NK cells (rhesus monkey (Macaca mulatta)) (UniProt Q9MZJ3); assay: FACS rhesus whole blood NK cells, animal P9215
# [9] = target: NKG2A on rhesus monkey (Macaca mulatta) NK cells (rhesus monkey (Macaca mulatta)) (UniProt Q9MZJ3); assay: FACS rhesus whole blood NK cells, animal RU925
# [10] = target: NKG2A on rhesus monkey (Macaca mulatta) NK cells (rhesus monkey (Macaca mulatta)) (UniProt Q9MZJ3); assay: FACS rhesus whole blood, animal R99273
# [11] = target: NKG2A on rhesus monkey (Macaca mulatta) NK cells (rhesus monkey (Macaca mulatta)) (UniProt Q9MZJ3); assay: FACS rhesus whole blood NK cells, mean of 9 animals
# [12] = target: NKG2A on baboon NK cells (baboon); assay: FACS baboon whole blood NK cells, animal V9912
# [13] = target: NKG2A on rhesus monkey (Macaca mulatta) NK cells (rhesus monkey (Macaca mulatta)) (UniProt Q9MZJ3); assay: FACS rhesus whole blood, animal R00025
# [14] = target: NKG2A on baboon NK cells (baboon); assay: FACS baboon whole blood NK cells, animal K938A
# [15] = target: NKG2A on cynomolgus monkey NK cells (cynomolgus monkey) (UniProt Q68VD2); assay: FACS cynomolgus whole blood, animal T270
# [16] = target: NKG2A on rhesus monkey (Macaca mulatta) NK cells (rhesus monkey (Macaca mulatta)) (UniProt Q9MZJ3); assay: FACS rhesus whole blood NK cells, animal CH256
# [17] = target: NKG2A on baboon NK cells (baboon); assay: FACS baboon whole blood NK cells, animal V914B
# [18] = target: NKG2A on cynomolgus monkey NK cells (cynomolgus monkey) (UniProt Q68VD2); assay: FACS cynomolgus whole blood, animal AK565
# [19] = target: NKG2A on baboon NK cells (baboon); assay: FACS baboon whole blood NK cells, animal V9920
# [20] = target: NKG2A on rhesus monkey (Macaca mulatta) NK cells (rhesus monkey (Macaca mulatta)) (UniProt Q9MZJ3); assay: FACS rhesus whole blood, animal R00023
# [21] = target: NKG2A on baboon NK cells (baboon); assay: FACS baboon whole blood NK cells, animal V857C
# [22] = target: NKG2A on rhesus monkey (Macaca mulatta) NK cells (rhesus monkey (Macaca mulatta)) (UniProt Q9MZJ3); assay: FACS rhesus whole blood, animal R00099
# [23] = target: NKG2A on rhesus monkey (Macaca mulatta) NK cells (rhesus monkey (Macaca mulatta)) (UniProt Q9MZJ3); assay: FACS rhesus whole blood NK cells, animal N0401
# [24] = target: NKG2A on rhesus monkey (Macaca mulatta) NK cells (rhesus monkey (Macaca mulatta)) (UniProt Q9MZJ3); assay: FACS rhesus whole blood, animal R00101
# [25] = target: NKG2A on cynomolgus monkey NK cells (cynomolgus monkey) (UniProt Q68VD2); assay: FACS cynomolgus whole blood, animal AL303
# [26] = target: NKG2A on cynomolgus monkey NK cells (cynomolgus monkey) (UniProt Q68VD2); assay: FACS cynomolgus whole blood, animal AL389
# Sequence of UniProt Q9MZJ3 (Q9MZJ3 whole entry): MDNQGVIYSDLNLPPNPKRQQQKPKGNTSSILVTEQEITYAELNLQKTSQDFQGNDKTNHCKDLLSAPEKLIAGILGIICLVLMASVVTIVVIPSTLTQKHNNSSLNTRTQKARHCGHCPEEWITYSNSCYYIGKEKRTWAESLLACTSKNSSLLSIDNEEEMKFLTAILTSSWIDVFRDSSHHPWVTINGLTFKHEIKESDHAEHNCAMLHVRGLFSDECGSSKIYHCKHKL
substance,measurement,setting,value
mouse IgG1 isotype control (antibody),%,[1],0.4%
same,%,[2],0.4%
same,% NK+,[3],0.3%
same,MFI,[3],0.6
same,% NK+,[4],0.2%
same,MFI,[4],0.51
same,% NK+,[5],1.4%
same,MFI,[5],0.76
same,%,[6],1.3%
same,% NK+,[7],0.5%
same,MFI,[7],0.67
same,%,[8],1.4%
same,%,[9],0.4%
same,% NK+,[10],0.5%
same,MFI,[10],0.54
same,% (Mean),[11],0.7%
same,%,[12],0.2%
same,tot. MFI,[12],0.2
same,% NK+,[13],0.7%
same,MFI,[13],0.45
same,%,[14],0.3%
same,tot. MFI,[14],0.3
same,% NK+,[15],0.2%
same,MFI,[15],0.54
same,%,[16],0.8%
same,%,[17],0.4%
same,tot. MFI,[17],1.1
same,% NK+,[18],0.6%
same,MFI,[18],0.66
same,%,[19],0.7%
same,tot. MFI,[19],0.8
same,% NK+,[20],0.3%
same,MFI,[20],0.5
same,%,[21],0.8%
same,tot. MFI,[21],1.4
same,% NK+,[22],1.2%
same,MFI,[22],0.56
same,%,[23],0.5%
same,% NK+,[24],0.5%
same,MFI,[24],0.58
same,% NK+,[25],0.13%
same,MFI,[25],0.63
same,% NK+,[26],0.3%
same,MFI,[26],0.63
